Earlier results in publication PMC4615603.

Target: Nef (Human immunodeficiency virus 1) (UniProt P04324)

In the case of Hck SH3 (from UniProt P08631), the Kd is given as 0.12 µM.
